Ends that are not written are not given here. * marks the point of attachment. Biotin = O=C1N[C@H]2[C@H](CS[C@H]2CCCCC(=O)*)N1

Holding throughout (assay): G' assay (10 uM PL peptide), results of TABLE 7 and TABLE 12
Holding throughout (type): binding

Assay [1] concerns the target T1, PDZ protein (GST-PDZ fusion) (Homo sapiens, UniProt Q6P0Q8).
T1 construct: made in house; host or cells: E. coli (DH5alpha, BL21 or JM109)
An outline of the steps:
(§1)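 Biotin-PL peptide (N-term label), 10 uM vs GST-PDZ; protein 5 ug/ml by default. A450 nm binned: 1 = 0-1, 2 = 1-2, 3 = 2-3, 4 = 3-4, 5 = >4 on >2 repeats, 0 = no binding.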

The target in assay [2] is T2, PDZ protein (GST-PDZ fusion) (Homo sapiens, UniProt Q9Y2H9).
T2 construct: made in house; host or cells: E. coli (DH5alpha, BL21 or JM109)
The note with it: PDZ KIAA0973, PDZ Domain 1. The method, boiled down: as §1

For assay [3], the target named is T3, PDZ protein (GST-PDZ fusion) (Homo sapiens, UniProt Q07157).
T3 construct: made in house; host or cells: E. coli (DH5alpha, BL21 or JM109)
The note with it: PDZ ZO-1, PDZ Domain 2. An outline of the steps: as §1

In assay [4] the target is T4, PDZ protein (GST-PDZ fusion) (Homo sapiens, UniProt Q9UDY2).
T4 construct: made in house; host or cells: E. coli (DH5alpha, BL21 or JM109)
T4 sequence (Q9UDY2 1-1190): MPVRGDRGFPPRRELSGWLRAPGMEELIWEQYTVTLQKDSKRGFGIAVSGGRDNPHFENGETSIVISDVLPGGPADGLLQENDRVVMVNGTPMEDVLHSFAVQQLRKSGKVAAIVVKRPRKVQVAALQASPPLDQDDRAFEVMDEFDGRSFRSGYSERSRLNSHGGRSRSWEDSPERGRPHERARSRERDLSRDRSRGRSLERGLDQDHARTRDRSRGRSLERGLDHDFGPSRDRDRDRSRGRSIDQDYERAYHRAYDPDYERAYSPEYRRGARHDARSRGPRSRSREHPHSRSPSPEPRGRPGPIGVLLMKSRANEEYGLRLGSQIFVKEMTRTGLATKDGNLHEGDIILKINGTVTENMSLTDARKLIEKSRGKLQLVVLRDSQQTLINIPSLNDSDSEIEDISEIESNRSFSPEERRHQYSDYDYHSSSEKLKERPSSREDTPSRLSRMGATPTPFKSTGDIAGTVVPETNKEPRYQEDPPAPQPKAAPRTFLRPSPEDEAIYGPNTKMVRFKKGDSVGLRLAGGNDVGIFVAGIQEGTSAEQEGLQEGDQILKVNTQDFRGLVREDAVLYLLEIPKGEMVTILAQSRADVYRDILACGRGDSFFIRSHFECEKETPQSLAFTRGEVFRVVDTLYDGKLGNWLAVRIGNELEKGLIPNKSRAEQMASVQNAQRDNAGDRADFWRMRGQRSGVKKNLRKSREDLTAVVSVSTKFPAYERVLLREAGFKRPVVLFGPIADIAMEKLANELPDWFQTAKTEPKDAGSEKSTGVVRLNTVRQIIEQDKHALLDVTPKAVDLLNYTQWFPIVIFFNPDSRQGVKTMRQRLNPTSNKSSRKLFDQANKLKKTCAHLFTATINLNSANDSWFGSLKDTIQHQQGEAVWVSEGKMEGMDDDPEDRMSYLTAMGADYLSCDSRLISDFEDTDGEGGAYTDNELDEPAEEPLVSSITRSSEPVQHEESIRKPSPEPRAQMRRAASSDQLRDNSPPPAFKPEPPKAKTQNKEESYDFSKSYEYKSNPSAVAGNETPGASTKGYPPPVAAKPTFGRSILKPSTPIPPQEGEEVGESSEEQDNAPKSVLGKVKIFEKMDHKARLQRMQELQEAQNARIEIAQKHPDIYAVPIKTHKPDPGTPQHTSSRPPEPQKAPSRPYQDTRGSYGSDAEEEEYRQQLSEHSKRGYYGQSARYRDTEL
The note with it: PDZ ZO-2, PDZ Domain 2. An outline of the steps: as §1

Assay [5] has as its system PDZ protein (GST-PDZ fusion). The note with it: as cited in the text from TABLE 7. An outline of the steps:
as §1

Assay [6] has as its target T5, PDZ protein (GST-PDZ fusion) (Homo sapiens, UniProt O15018).
T5 construct: made in house; host or cells: E. coli (DH5alpha, BL21 or JM109)
The note with it: PDZ AIPC, PDZ Domain 1. The method, boiled down:
as §1

Assay [7] has as its target T6, PDZ protein (GST-PDZ fusion) (Homo sapiens, UniProt Q12923).
T6 construct: made in house; host or cells: E. coli (DH5alpha, BL21 or JM109)
The note with it: PDZ PTPL-1, PDZ Domain 4. An outline of the steps:
as §1

For assay [8], the target named is T7, PDZ protein (GST-PDZ fusion) (Homo sapiens, UniProt Q13796).
T7 construct: made in house; host or cells: E. coli (DH5alpha, BL21 or JM109)
The note with it: PDZ hAPXL, PDZ Domain 1. An outline of the steps: as §1

Assay [9] concerns the target T8, PDZ protein (GST-PDZ fusion) (Homo sapiens, UniProt Q8TEW0).
T8 construct: made in house; host or cells: E. coli (DH5alpha, BL21 or JM109)
The note with it: PDZ PAR3, PDZ Domain 3. An outline of the steps: as §1

Assay [10] deals with T9, PDZ protein (GST-PDZ fusion) (Homo sapiens, UniProt Q12959).
T9 construct: made in house; host or cells: E. coli (DH5alpha, BL21 or JM109)
T9 sequence (Q12959 whole entry, the tested form may be a part): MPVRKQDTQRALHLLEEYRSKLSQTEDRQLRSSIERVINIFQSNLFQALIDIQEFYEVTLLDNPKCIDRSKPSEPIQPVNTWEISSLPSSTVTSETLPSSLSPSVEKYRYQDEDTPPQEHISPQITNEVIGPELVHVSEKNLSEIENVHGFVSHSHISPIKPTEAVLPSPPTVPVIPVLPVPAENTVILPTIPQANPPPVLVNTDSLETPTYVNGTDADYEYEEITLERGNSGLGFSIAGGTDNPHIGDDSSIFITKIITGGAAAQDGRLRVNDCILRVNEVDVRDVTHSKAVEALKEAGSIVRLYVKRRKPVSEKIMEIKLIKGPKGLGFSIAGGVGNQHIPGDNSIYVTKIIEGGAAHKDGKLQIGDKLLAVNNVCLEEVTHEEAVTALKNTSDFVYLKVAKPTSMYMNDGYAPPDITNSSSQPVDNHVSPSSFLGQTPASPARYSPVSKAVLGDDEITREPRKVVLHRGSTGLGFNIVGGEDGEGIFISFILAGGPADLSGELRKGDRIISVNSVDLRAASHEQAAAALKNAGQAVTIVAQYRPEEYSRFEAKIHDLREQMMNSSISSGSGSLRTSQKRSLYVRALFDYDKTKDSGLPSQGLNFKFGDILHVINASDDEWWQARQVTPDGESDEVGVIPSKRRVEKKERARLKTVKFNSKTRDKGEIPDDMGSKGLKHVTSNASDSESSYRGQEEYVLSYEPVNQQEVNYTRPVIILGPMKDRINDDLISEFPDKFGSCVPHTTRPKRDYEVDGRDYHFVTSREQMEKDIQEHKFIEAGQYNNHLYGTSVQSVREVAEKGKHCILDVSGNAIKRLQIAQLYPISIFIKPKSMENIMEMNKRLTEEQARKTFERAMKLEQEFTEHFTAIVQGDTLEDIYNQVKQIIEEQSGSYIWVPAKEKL
The note with it: PDZ DLG1, PDZ Domain 2. An outline of the steps: as §1

In assay [11] the target is T10, PDZ protein (GST-PDZ fusion) (Homo sapiens, UniProt Q5TCQ9).
T10 construct: made in house; host or cells: E. coli (DH5alpha, BL21 or JM109)
T10 sequence (Q5TCQ9 1-1481): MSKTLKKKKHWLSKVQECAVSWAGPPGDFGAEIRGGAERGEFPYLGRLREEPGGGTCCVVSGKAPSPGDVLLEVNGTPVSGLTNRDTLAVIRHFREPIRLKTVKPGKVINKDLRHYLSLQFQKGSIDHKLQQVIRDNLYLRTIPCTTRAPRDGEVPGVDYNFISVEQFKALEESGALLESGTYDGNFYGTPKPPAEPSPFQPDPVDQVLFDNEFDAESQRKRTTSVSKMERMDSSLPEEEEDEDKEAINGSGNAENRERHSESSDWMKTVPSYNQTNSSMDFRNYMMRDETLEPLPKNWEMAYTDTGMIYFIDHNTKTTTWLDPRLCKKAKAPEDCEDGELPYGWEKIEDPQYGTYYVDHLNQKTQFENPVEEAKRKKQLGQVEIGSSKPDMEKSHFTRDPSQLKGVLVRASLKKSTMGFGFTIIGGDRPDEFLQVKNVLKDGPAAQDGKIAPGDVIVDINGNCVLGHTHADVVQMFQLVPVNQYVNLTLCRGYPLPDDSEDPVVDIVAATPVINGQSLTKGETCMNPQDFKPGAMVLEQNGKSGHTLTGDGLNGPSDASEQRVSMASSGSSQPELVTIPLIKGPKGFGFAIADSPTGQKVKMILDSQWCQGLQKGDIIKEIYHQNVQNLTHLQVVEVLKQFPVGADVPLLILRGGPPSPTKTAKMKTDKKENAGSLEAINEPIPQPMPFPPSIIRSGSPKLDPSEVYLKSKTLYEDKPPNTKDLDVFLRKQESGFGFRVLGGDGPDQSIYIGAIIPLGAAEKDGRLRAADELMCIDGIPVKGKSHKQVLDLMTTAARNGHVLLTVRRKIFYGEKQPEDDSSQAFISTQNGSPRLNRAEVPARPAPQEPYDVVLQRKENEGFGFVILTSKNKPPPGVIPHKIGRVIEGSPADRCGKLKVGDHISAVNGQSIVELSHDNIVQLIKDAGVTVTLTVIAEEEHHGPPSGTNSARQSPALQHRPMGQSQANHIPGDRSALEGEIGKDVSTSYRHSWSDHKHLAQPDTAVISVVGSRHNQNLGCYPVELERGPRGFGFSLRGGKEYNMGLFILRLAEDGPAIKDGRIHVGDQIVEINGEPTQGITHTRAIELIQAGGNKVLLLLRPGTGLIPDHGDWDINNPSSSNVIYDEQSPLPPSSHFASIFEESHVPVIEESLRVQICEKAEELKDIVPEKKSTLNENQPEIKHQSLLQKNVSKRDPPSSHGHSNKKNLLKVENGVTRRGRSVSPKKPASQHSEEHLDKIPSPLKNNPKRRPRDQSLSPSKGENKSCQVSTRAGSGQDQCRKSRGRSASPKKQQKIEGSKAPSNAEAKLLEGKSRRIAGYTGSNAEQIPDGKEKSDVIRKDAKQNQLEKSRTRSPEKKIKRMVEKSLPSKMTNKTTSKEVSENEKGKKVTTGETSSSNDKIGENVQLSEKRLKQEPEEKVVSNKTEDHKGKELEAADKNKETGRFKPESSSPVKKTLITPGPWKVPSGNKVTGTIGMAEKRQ
The note with it: PDZ KIAA1634, PDZ Domain 1. The method, boiled down:
as §1

The target of assay [12] is T11, PDZ protein (GST-PDZ fusion) (Homo sapiens, UniProt O75970).
T11 construct: made in house; host or cells: E. coli (DH5alpha, BL21 or JM109)
The note with it: PDZ MUPP-1, PDZ Domain 11. An outline of the steps:
as §1

Assay [13] deals with T12, PDZ protein (GST-PDZ fusion) (Homo sapiens, UniProt Q02410).
T12 construct: made in house; host or cells: E. coli (DH5alpha, BL21 or JM109)
T12 sequence (Q02410 1-837): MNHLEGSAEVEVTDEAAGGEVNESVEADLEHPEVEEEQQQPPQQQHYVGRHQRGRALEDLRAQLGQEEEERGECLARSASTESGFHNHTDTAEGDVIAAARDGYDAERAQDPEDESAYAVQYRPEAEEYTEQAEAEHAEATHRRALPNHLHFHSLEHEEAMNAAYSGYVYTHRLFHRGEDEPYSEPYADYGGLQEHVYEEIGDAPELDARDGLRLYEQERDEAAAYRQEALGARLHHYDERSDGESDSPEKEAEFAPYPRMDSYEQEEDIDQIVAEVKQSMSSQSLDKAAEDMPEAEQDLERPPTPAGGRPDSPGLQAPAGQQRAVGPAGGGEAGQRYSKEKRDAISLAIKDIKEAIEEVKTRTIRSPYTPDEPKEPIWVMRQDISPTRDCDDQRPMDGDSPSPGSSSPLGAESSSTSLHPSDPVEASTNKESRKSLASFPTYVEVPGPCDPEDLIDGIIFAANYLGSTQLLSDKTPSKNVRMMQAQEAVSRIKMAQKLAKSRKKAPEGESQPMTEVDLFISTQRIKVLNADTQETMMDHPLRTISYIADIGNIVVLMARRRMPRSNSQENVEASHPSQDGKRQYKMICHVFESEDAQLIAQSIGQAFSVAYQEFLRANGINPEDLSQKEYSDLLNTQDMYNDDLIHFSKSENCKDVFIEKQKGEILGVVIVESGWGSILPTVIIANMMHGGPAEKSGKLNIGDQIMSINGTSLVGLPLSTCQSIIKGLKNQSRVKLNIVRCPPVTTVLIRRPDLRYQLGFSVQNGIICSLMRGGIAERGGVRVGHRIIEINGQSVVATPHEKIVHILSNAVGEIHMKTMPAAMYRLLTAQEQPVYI
The note with it: PDZ Mint 1, PDZ Domain 2. An outline of the steps:
as §1

The target in assay [14] is T13, PDZ protein (GST-PDZ fusion) (Homo sapiens, UniProt Q9C0E4).
T13 construct: made in house; host or cells: E. coli (DH5alpha, BL21 or JM109)
T13 sequence (Q9C0E4 whole entry, the tested form may be a part): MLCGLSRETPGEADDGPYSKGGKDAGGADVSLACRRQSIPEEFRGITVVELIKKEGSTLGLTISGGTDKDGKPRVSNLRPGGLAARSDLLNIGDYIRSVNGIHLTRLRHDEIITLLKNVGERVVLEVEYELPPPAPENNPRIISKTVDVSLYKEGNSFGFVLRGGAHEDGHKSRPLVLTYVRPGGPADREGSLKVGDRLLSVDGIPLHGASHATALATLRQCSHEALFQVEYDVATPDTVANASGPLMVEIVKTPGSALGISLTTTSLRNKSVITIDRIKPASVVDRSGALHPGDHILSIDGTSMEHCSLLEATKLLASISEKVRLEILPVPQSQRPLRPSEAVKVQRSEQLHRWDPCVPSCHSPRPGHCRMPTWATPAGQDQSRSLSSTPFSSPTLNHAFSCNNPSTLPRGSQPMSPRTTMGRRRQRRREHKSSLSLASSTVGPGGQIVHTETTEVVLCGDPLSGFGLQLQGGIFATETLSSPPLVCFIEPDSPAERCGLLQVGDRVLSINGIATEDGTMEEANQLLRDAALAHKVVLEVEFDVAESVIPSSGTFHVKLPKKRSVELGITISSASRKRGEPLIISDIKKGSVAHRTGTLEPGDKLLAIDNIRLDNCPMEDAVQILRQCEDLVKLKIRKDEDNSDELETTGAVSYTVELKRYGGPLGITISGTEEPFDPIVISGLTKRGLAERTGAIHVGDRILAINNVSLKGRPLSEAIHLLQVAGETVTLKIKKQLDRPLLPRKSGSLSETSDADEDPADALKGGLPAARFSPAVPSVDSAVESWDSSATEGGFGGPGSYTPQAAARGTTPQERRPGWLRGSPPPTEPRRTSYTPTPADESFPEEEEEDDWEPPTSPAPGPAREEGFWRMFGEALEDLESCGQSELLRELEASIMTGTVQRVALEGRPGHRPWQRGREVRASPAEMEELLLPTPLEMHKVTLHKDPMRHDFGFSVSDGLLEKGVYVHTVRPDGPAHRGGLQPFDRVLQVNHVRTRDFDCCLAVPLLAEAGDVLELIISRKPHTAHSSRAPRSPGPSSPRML
The note with it: PDZ KIAA1719, PDZ Domain 6. The method, boiled down: as §1

Assay [15] concerns the target T14, PDZ protein (GST-PDZ fusion) (Homo sapiens, UniProt Q9NZN5).
T14 construct: made in house; host or cells: E. coli (DH5alpha, BL21 or JM109)
The note with it: PDZ KIAA0382, PDZ Domain 1. The method, boiled down: as §1

T8 sequence (Q8TEW0 whole entry, the tested form may be a part): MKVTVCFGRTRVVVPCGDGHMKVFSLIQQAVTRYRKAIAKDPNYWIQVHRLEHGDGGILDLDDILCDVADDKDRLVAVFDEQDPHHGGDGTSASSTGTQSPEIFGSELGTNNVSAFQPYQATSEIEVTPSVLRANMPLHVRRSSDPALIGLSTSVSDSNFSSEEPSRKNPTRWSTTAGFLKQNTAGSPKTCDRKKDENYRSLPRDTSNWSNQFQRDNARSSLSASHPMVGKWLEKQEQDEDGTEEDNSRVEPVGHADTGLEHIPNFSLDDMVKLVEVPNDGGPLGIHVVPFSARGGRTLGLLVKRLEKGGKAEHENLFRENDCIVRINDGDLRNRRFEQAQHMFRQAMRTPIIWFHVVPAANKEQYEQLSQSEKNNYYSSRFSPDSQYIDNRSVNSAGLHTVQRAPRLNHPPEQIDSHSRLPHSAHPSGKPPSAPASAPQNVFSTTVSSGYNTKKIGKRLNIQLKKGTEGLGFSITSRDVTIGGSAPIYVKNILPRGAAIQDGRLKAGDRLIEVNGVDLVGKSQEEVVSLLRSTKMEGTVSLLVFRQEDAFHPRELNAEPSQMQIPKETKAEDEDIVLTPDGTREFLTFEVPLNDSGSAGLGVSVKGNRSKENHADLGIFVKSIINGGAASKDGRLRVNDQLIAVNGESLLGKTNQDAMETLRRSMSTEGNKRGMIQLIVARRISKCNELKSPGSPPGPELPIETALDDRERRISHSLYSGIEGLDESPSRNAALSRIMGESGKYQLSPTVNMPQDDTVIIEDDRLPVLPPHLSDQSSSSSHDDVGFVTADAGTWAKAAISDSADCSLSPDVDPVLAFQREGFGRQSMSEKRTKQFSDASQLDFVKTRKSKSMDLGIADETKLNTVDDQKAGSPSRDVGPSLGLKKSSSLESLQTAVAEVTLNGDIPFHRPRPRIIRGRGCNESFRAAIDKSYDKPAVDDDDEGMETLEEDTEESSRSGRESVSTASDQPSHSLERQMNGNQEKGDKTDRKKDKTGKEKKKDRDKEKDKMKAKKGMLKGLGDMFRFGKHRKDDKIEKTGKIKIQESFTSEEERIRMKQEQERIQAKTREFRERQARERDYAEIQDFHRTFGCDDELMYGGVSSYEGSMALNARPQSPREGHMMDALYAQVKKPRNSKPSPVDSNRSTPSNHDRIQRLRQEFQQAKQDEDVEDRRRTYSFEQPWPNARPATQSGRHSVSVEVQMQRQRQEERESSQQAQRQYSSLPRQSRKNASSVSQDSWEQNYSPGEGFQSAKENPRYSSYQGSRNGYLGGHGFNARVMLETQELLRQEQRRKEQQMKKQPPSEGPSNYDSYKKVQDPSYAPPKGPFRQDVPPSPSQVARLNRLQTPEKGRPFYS
T1 sequence (Q6P0Q8 whole entry, the tested form may be a part): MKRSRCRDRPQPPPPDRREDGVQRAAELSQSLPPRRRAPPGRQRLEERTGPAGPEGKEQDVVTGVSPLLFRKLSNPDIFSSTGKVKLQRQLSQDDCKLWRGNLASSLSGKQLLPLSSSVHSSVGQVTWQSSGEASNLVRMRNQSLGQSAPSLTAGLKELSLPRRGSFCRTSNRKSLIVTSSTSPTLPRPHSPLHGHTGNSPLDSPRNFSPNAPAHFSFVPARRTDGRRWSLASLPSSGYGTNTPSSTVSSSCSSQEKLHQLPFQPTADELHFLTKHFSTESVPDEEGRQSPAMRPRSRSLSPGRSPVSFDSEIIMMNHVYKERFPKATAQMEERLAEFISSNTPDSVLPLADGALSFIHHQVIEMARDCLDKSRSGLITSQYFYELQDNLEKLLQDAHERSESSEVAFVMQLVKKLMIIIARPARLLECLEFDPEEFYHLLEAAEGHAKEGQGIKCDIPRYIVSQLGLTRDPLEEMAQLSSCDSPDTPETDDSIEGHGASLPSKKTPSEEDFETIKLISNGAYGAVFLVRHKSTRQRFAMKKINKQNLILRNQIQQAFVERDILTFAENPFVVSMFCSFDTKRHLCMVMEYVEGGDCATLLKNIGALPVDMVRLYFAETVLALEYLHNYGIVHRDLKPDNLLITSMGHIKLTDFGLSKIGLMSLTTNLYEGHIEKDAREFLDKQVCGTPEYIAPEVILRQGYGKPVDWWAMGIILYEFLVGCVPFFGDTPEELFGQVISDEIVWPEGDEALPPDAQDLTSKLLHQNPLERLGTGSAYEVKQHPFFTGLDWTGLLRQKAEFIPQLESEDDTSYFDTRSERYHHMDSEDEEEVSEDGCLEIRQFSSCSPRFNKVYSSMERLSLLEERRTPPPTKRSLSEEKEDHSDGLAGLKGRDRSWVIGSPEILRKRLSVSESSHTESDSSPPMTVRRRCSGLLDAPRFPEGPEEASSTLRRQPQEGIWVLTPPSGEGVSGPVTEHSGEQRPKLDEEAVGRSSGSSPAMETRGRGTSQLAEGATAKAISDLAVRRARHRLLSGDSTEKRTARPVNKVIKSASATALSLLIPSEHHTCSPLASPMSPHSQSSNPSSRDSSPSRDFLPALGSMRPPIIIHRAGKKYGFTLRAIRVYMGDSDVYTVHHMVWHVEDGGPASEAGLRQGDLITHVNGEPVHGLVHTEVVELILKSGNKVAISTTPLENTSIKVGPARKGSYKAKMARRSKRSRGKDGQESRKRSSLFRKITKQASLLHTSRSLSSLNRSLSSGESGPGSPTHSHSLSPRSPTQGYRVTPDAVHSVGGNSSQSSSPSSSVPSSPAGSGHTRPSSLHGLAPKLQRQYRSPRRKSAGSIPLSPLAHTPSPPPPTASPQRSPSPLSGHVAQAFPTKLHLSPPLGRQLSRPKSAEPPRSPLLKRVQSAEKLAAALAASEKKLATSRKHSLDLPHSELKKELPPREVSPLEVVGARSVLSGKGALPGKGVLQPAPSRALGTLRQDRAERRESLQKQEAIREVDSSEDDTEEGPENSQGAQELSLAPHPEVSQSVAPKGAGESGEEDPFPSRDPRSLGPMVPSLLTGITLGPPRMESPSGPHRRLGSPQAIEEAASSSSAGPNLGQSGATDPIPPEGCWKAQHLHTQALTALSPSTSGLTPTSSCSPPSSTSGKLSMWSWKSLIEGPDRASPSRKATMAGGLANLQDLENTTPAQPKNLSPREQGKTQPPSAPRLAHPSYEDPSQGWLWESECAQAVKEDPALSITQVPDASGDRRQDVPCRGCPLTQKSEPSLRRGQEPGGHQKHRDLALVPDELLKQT

Take “NSYVRDDAIFIKAIVDLTGL (Biotin-NSYVRDDAIFIKAIVDLTGL) [TRAF2]”: the Classification in assay [1] (PDZ KIAA807) was 2 (A450 nm 1-2); in [1] (PDZ KIAA0807(S), PDZ Domain 1) it was 4 (A450 nm 3-4); in assay [2] it was 1 (A450 nm 0-1).

Turning to “PSSRASSRASSRPRPDDLEI (Biotin-PSSRASSRASSRPRPDDLEI) [CX43]”, the results for the Classification in assay [3] and in [4] were 2 (A450 nm 1-2) and 1 (A450 nm 0-1), respectively. The “PDZ proteins bound by the PL (TABLE 7)” value in [5] was “ZO-2 and ZO-1”.

For “LLNVLQRQELGDGLDDEIAV (Biotin-LLNVLQRQELGDGLDDEIAV)”, the Classification in assay [6] is recorded as 1 (A450 nm 0-1); in assay [7] it was 1 (A450 nm 0-1); in [8] it was 1 (A450 nm 0-1); in assay [1] (PDZ KIAA0807(S), PDZ Domain 1) it was 1 (A450 nm 0-1); in [1] (PDZ KIAA807, PDZ Domain not given) it was 1 (A450 nm 0-1); in assay [9], 1 (A450 nm 0-1).

As for “VDPNSPAAKKKYVSYNNLVI [GLUR7 (metabotropic glutamate receptor)]”, the Classification in assay [10] is reported as 1 (A450 nm 0-1); in [11], 1 (A450 nm 0-1); in assay [9], 2 (A450 nm 1-2).

“RIAYSLLGLKDQVNTVGIPI (Biotin-RIAYSLLGLKDQVNTVGIPI) [ephrin A2]”: the Classification in [12], in assay [13], in assay [14] and in [15] was 1 (A450 nm 0-1) in each case.

For “PTR2_HUMAN (Biotin-RPMESNPDTEGAQGETEDVL)”, the Classification in assay [8] and in assay [9] was 1 (A450 nm 0-1) throughout.

Regarding “QGDPALQDAGDSSRKEYFI (Biotin-QGDPALQDAGDSSRKEYFI) [Glycophorin C]”, the Classification is 2 (A450 nm 1-2) in assay [9] and 1 (A450 nm 0-1) in assay [14].

(Values after patent US20050282743A1, “Molecular interactions in cells” (Arbor Vita Corporation, priority 2001, published 2005).)
